According to the supplement of paper PMC7125110:
± gives the standard error. For part of these data: Fewer inactive variants are shown than the library holds.

B1: glmS ribozyme (parent)
chain: AUAAAAGCGCCAGAACUACAGAAAUGUAGUUGACGAGGAGGAGGUUUAUCGAAUUUUCGGCGGAUGCCUCCAAA

Key:
Conditions in all cases: with glucosamine-6-phosphate
glucosamine-6-phosphate [1] = variants of: B1; assay: kcat; higher = faster cleavage; RNA array
How it was run: (§1)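 On sequenced MiSeq chips, barcoded ribozyme variants were made in situ by E. coli RNA polymerase and followed at 37 °C through a hybridised Cy3 probe. Glucosamine-6-phosphate was flowed in at 40 μM to 10 mM in HEPES/KCl/Mg(OAc)2 buffer. Exponential fits to normalised per-tile medians gave kobs, and weighted Michaelis–Menten fits gave kcat and KM.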

glucosamine-6-phosphate [2] = variants of: B1; assay: self-cleavage kobs at 40 uM GlcN6P; higher = faster cleavage; RNA array
How it was run: as §1

glucosamine-6-phosphate [3] = variants of: B1; assay: self-cleavage kobs at 160 uM GlcN6P; higher = faster cleavage; RNA array
How it was run: as §1

glucosamine-6-phosphate [4] = variants of: B1; assay: self-cleavage kobs at 640 uM GlcN6P; higher = faster cleavage; RNA array
How it was run: as §1

glucosamine-6-phosphate [5] = variants of: B1; assay: self-cleavage kobs at 2500 uM GlcN6P; higher = faster cleavage; RNA array
How it was run: as §1

glucosamine-6-phosphate [6] = variants of: B1; assay: self-cleavage kobs at 10000 uM GlcN6P; higher = faster cleavage; RNA array
How it was run: as §1

glucosamine-6-phosphate [7] = variants of: B1; assay: KM; higher = weaker cofactor use; RNA array
How it was run: as §1

Variant | kcat (glucosamine-6-phosphate [1]) | self-cleavage kobs at 40 uM GlcN6P (glucosamine-6-phosphate [2]) | self-cleavage kobs at 160 uM GlcN6P (glucosamine-6-phosphate [3]) | self-cleavage kobs at 640 uM GlcN6P (glucosamine-6-phosphate [4]) | self-cleavage kobs at 2500 uM GlcN6P (glucosamine-6-phosphate [5]) | self-cleavage kobs at 10000 uM GlcN6P (glucosamine-6-phosphate [6]) | KM (glucosamine-6-phosphate [7])
AUAAAAGCGCCAGGACUACAGAAAUGUAGUUGACGAGGACGAGGUUUAUCGAAUUUUCGGCGGAUGCCUCCAAA [A14G G40C] | 0.0146 ± 0.0059 s⁻¹ | 0.000285 ± 5.8e-05 s⁻¹ | 0.000739 ± 0.0001 s⁻¹ | 0.00301 ± 0.00036 s⁻¹ | 0.00549 ± 0.00094 s⁻¹ | 0.0168 ± 0.0032 s⁻¹ | –
AUAAAAGCGCCAGGACUACAGAAAUGUAGUUGACGAGGAGGAGGUUUAUCGAAUUUUCUGCGGAUGCCUCCAAA [A14G G59U] | 0.000386 ± 9.6e-05 s⁻¹ | – | – | 1.71e-05 ± 8e-06 s⁻¹ | 9.37e-05 ± 1.5e-05 s⁻¹ | 0.000196 ± 2.2e-05 s⁻¹ | 9.33 ± 3.8 mM
AUAAAAGCGCCAGCACUACAGAAAUGUAGUUGACGAGGAGGAGGUUUAUCGAAUUUUCGGCGGAGGCCUCCAAA [A14C U65G] | 0.00175 ± 0.00025 s⁻¹ | – | – | 0.000206 ± 5.5e-05 s⁻¹ | 0.000717 ± 0.00019 s⁻¹ | 0.00117 ± 0.00024 s⁻¹ | 4.5 ± 1 mM
AUAAAAGCGCCAGGACUACAGAAAUGUAGUUGUCGAGGAGGAGGUUUAUCGAAUUUUCGGCGGAUGCCUCCAAA [A14G A33U] | 0.000136 ± 9.7e-06 s⁻¹ | < 1e-05 s⁻¹ | – | – | 3.08e-05 ± 1e-05 s⁻¹ | 7.29e-05 ± 7e-06 s⁻¹ | 8.71 ± 1.3 mM
AUAAAAGCGCCAGGACUACAGAAAUGUAGUUGACGAGGAGGAGGUUUAUCGAAUUUUCGGCGGAUGCCUUGAAA [A14G C70U C71G] | 0.000213 ± 6.9e-05 s⁻¹ | – | – | 0.000185 ± 3.7e-05 s⁻¹ | 0.00039 ± 8.8e-05 s⁻¹ | 0.000168 ± 3.3e-05 s⁻¹ | –
AUAAAAGCGCCAGGACUACAGACAUGUAGUUGACGAGGAGGAGGUUUAUCGAAUUUUCGGCGGUUGCCUCCAAA [A14G A23C A64U] | 0.000287 ± 3.5e-05 s⁻¹ | – | – | 8.79e-05 ± 2.3e-05 s⁻¹ | 0.000151 ± 4.3e-05 s⁻¹ | 0.00026 ± 5.2e-05 s⁻¹ | 1.61 ± 0.46 mM
AUAAAAGCGCCAGGACUACAGAAAUGUAGUUGACGAGGAGGAGGUUUAUUGAAUUUUCGGCGGAUGCCUCCAAA [A14G C50U] | 0.000229 ± 4.9e-05 s⁻¹ | – | – | 3.25e-05 ± 1.6e-05 s⁻¹ | 5.19e-05 ± 9.6e-06 s⁻¹ | 0.000128 ± 1.5e-05 s⁻¹ | 7.96 ± 3 mM
AUAAAAGCGCCAGGACUACAGAAAUGUAGUUGACGAGGAGGAGGUUUAUCGAAUUUUCGGAGGAUGCCUCCAAA [A14G C61A] | 1.1e-05 ± 4.8e-06 s⁻¹ | – | – | – | – | – | –
